Measurements taken from US6110457.

Target: T1, bovine fetuin (type IV; Sigma Chemical Company) (bovine) (UniProt P12763)
T1 sequence: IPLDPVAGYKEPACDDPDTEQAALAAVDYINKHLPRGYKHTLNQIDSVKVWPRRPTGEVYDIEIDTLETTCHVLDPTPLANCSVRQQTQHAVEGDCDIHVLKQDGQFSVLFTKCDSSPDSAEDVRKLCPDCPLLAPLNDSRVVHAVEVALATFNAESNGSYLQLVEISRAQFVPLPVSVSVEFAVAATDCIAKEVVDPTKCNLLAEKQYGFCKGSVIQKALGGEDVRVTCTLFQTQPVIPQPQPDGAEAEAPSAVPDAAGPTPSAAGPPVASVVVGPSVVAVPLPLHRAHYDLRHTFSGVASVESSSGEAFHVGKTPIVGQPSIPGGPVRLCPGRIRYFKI

B1: hemagglutinin-neuraminidase protein, HN, of wild-type HPIV-3 (JS) (enzyme)
chain: MEYWKHTNHGKDAGNELETSMATHGNKLTNKIIYILWTIILVLLSIVFIIVLINSIKSEKAHESLLQDINNEFMEITEKIQMASDNTNDLIQSGVNTRLLTIQSHVQNYIPISLTQQMSDLRKFISEITIRNDNQEVLPQRITHDVGIKPLNPDDFWRCTSGLPSLMKTPKIRLMPGPGLLAMPTTVDGCVRTPSLVINDLIYAYTSNLITRGCQDIGKSYQVLQIGIITVNSDLVPDLNPRISHTFNINDNRKSCSLALLNTDVYQLCSTPKVDERSDYASSGIEDIVLDIVNYDGSISTTRFKNNNISFDQPYAALYPSVGPGIYYKGKIIFLGYGGLEHPINENVICNTTGCPGKTQRDCNQASHSPWFSDRRMVNSIIVVDKGLNSIPKLKVWTISMRQNYWGSEGRLLLLGNKIYIYTRSTSWHSKLQLGIIDITDYSDIRIKWTWHNVLSRPGNNECPWGHSCPDGCITGVYTDAYPLNPTGSIVSSVILDSQKSRVNPVITYSTATERVNELAILNRTLSAGYTTTSCITHYNKGYCFHIVEINHKSLNTFQPMLFKTEIPKSCS
Neuraminidase activity with Fetuin (optical density values at 549nm) (optical density at 549nm): 1.11
